This is an account of results in patent US20180360946A1 (ALBERT EINSTEIN COLLEGE OF MEDICINE, published 2018).

The target of test [1] is murine mAb 4E11. In words: phage ELISA, phage-displayed DIII titrated on immobilized 4E11. More on the design: unit not given here. (An ELISA detects its analyte on a solid surface through an enzyme-linked reagent.)
The target in test [2] is T1, mAb 2H12.
T1 construct: also called prototypic AB-loop mAb 2H12
The test is described as follows: biolayer interferometry. On the technique in general: In BLI a coated tip is dipped into the sample, and binding shifts an interference pattern.

Test [3] has as its target murine mAb 4E11. The test is described as follows: biolayer interferometry.
Test [4] concerns the target T1, mAb 2H12. In words: ELISA, purified DIII.
Test [5] has as its target murine mAb 4E11. The test is described as follows: ELISA, purified DIII.
The target of test [6] is T1, mAb 2H12. In words: ELISA.
For the next test, the target named is T2, mAb 3H5-1.
T2 construct: also called prototypic FG-loop mAb 3H5-1
In words: ELISA.

Test [7] deals with murine mAb 4E11. In words: ELISA.

B1: WT DENV2 EDIII (other)
chain: GMSYSMCTGKFKIVKEIAETQHGTIVIRVQYEGDGSPCKIPFEIMDLEKRHVLGRLITVNPIVTEKDSPVNIEAEPPFGDSYIIIGVEPGQLKLNWFKKGSSIGQ
notes: also called WT DENV2 DIII; DENV2 EDIII WT
Broadly, the Kd is a measure of binding affinity in units of concentration. Broadly, the EC50 is the concentration that produces a half-maximal response. In the case of B1, the “EC50 (read off the curve)” value with murine mAb 4E11 [1] was around 5e+08. The Kd with mAb 2H12 [2] is 0.03 nM; in the test with murine mAb 4E11 [3] it was around 4 pM. Further, the EC50 is 0.00032 µM with mAb 2H12 [4]; 0.0024 µM with murine mAb 4E11 [5]; 0.0003 µM with mAb 2H12 [6]; around 2000 µM with mAb 3H5-1; 0.002 µM with murine mAb 4E11 [7].
